# Data reported in patent publication US20240262912A1 (MERUS N V, published 2024).
# T1: Human CLEC12A on cells (HL60, CLEC12A-CHO-K1, primary blood, bone marrow and AML cells) (human, UniProt Q5QGZ9 1-265)
# T1 sequence: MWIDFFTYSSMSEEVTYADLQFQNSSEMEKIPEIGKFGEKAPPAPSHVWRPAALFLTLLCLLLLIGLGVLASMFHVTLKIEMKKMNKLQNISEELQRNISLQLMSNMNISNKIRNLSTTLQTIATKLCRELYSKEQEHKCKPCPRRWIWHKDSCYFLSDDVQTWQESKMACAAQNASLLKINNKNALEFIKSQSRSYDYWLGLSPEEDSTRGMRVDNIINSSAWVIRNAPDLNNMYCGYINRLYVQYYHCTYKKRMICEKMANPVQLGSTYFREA
# T2: Recombinant purified CLEC12A-His (Sino Biologicals) (human, UniProt Q5QGZ9 65-265)
# T2 construct: Bought protein; 11896-H07H; not shown: His tag
# T2 sequence: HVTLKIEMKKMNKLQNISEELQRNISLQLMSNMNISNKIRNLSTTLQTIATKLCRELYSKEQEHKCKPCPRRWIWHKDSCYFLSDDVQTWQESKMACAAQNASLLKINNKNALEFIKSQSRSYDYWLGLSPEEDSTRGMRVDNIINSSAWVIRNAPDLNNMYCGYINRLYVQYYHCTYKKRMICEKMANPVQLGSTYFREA
# B1: Antibody MF4327×MF5196, full length human IgG1 CLEC12AxCD3 bispecific antibody with silenced Fc effector function (bispecific antibody, V domains shown)
# VH 1: QVQLVQSGAEVKKPGASVKVSCKASGYTFTSYYMHWVRQAPGQGLEWMGIINPSGGSTSYAQKFQGRVTMTRDTSTSTVYMELSSLRSEDTAVYYCAKGTTGDWFDYWGQGTLVTVSS
# VH 2: QVQLVQSGGGVVQPGRSLRLSCVASGFTFSSYGMHWVRQAPGKGLEWVAAIWYNARKQDYADSVKGRFTISRDNSKNTLYLQMNSLRAEDTAVYYCTRGTGYNWFDPWGQGTLVTVSS
# VL: not shown
# notes: Full length human IgG1 with a common light chain; The CH3 domains are engineered for heterodimerisation, and changes in the CH2 regions remove Fc effector function; also called CLEC12AxCD3 bispecific IgG; Fcγ receptor-silenced antibody MF4327×MF5196
# Tests used:
# [1] = target: T1, Human CLEC12A on cells (HL60, …); assay: cell-based or functional assay
# [2] = target: T1, Human CLEC12A on cells (HL60, …); assay: cell-based or functional assay; remark: listed apart in the source
# [3] = target: T2, Recombinant purified CLEC12A-His (Sino …); assay: SPR (Biacore T100); antibody captured on CM5 chip through mouse anti-human IgG, recombinant CLEC12A-His run over the surface
# Source text: Recombinant purified CLEC12A-His (Sino Biologicals) or recombinant CD36F-Fc protein was subsequently run over the surface using a Biacore T100 instrument (GE Healthcare).
# [4] = target: T1, Human CLEC12A on cells (HL60, …); assay: cell-based or functional assay; remark: listed apart in the source
binder,measurement,setting,value
B1,"median fold T cell expansion in primary AML samples, day 10",[1],48 fold
same,"CD25 on CD4 T cells, mean EC50 (HL60 cytotoxicity assay)",[2],0.351 mg/L
same,"CD25 on CD8 T cells, mean EC50 (HL60 cytotoxicity assay)",[2],0.0957 mg/L
same,"CD69 on CD4 T cells, mean EC50 (HL60 cytotoxicity assay)",[2],0.156 mg/L
same,"CD69 on CD8 T cells, mean EC50 (HL60 cytotoxicity assay)",[2],0.0444 mg/L
same,"HL60 cell lysis, mean EC50",[2],0.0682 mg/L
same,Kd,[3],3 nM
same,"fold T cell expansion, primary AML sample of patient 10, day 10",[4],25 fold
same,"fold T cell expansion, primary AML sample of patient 11, day 10",[4],6 fold
same,"fold T cell expansion, primary AML sample of patient 12, day 10",[4],37 fold
same,"fold T cell expansion, primary AML sample of patient 13, day 10",[4],139 fold
same,"fold T cell expansion, primary AML sample of patient 14, day 10 (1,000 ng/mL)",[4],64 fold
same,"fold T cell expansion, primary AML sample of patient 15, day 10 (1,000 ng/mL)",[4],25 fold
same,"fold T cell expansion, primary AML sample of patient 16, day 10",[4],15 fold
same,"fold T cell expansion, primary AML sample of patient 17, day 10",[4],98 fold
same,"fold T cell expansion, primary AML sample of patient 18, day 10",[4],20 fold
same,"fold T cell expansion, primary AML sample of patient 19, day 10",[4],60 fold
same,"fold T cell expansion, primary AML sample of patient 20, day 10 (1,000 ng/mL)",[4],157 fold
